From publication PMC12838833 come the findings set out here.

This assay has as its target Staphylococcus aureus DltA (D-alanine-D-alanyl carrier protein ligase) (Staphylococcus aureus) (UniProt Q2FZW6).
UniProt Q2FZW6, sequence (Q2FZW6 whole entry): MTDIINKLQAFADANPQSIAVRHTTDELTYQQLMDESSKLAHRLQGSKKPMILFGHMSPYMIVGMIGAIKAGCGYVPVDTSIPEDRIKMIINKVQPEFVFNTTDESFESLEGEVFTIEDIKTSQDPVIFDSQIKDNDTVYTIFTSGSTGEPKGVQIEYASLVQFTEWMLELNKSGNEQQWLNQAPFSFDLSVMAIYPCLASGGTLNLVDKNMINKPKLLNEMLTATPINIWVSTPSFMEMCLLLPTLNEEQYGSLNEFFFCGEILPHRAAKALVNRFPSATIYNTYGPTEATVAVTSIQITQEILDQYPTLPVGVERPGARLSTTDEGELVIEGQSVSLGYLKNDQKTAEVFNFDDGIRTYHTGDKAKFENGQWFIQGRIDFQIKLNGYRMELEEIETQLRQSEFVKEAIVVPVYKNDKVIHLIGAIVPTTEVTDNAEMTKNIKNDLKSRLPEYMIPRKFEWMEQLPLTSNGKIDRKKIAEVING

B1: Wild-type Staphylococcus aureus D-alanyl carrier protein DltC (natural protein)
chain: MEFREQVLNLLAEVAENDIVKENPDVEIFEEGIIDSFQTVGLLLEIQNKLDIEVSIMDFDRDEWATPNKIVEALEELR
modifications: 4'-phosphopantetheine (Ppant) on Ser36 (co-expressed with AcpS to produce Ppant-attached SaDltC)
Consider B1, for which the SaDltA adenylation activity (pyrophosphate detection assay, initial rates; 5 uM SaDltA with 300 uM SaDltC, 37 °C), increase over SaDltA alone worked out at 22.3 fold.
